System: Escherichia coli TOP10
Experiment: shrunken log2 fold change of peptide-encoding DNA abundance (4.5 h post-induction vs induction); higher = less antimicrobial activity (less host growth inhibition)
Details: time post-induction: 4.5 h; library: site-saturation at positions 5, 18, 19, 20
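Also: peptides expressed intracellularly from a pBAD plasmid library in pooled LB shake-flask culture, induced with 0.3% L-arabinose, DNA abundance read by NGS, three biological replicates, DESeq2 with apeglm shrinkage.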

Sequence | shrunken log2 fold change
RRIRNRPPRLPRPRPRPLWKPRP | -0.422
RRIRERPPRLPRPRPRPDLKPRP | -0.108
RRIRERPPRLPRPRPRPQCCPRP | -0.106
RRIRMRPPRLPRPRPRPAINPRP | 0.321
RRIRCRPPRLPRPRPRPFKIPRP | -0.6
RRIRVRPPRLPRPRPRPIYKPRP | -0.535
RRIRTRPPRLPRPRPRPKVYPRP | 0.0324
RRIRRRPPRLPRPRPRPGNGPRP | 0.372
RRIRCRPPRLPRPRPRPSEGPRP | 0.141
RRIRQRPPRLPRPRPRPDQPPRP | -0.0438
RRIRRRPPRLPRPRPRPSFAPRP | 0.492
RRIRFRPPRLPRPRPRPHHGPRP | 0.000407
RRIRRRPPRLPRPRPRPINDPRP | -0.219
RRIRNRPPRLPRPRPRPHFNPRP | -0.608
RRIRERPPRLPRPRPRPHQYPRP | -0.00989
RRIRCRPPRLPRPRPRPNLYPRP | -0.347
RRIRYRPPRLPRPRPRPSMRPRP | -0.634
RRIRARPPRLPRPRPRPMCAPRP | 0.813
RRIRHRPPRLPRPRPRPMRPPRP | 0.36
RRIRGRPPRLPRPRPRPKMRPRP | 1.33
RRIRQRPPRLPRPRPRPWFHPRP | 0.00902
RRIRVRPPRLPRPRPRPIDWPRP | 0.224
RRIRDRPPRLPRPRPRPIIMPRP | -0.226
RRIRERPPRLPRPRPRPGKEPRP | 0.0125
RRIRERPPRLPRPRPRPMETPRP | 0.015

Sequence | shrunken log2 fold change
RRIRLRPPRLPRPRPRPREWPRP | -0.0315
RRIRQRPPRLPRPRPRPWHHPRP | -0.00612
RRIRSRPPRLPRPRPRPPHDPRP | 0.277
RRIRVRPPRLPRPRPRPKKNPRP | 0.28
RRIRGRPPRLPRPRPRPIEYPRP | 0.0165
RRIRYRPPRLPRPRPRPIGEPRP | -0.135
RRIRIRPPRLPRPRPRPFFYPRP | -0.416
RRIRRRPPRLPRPRPRPHVQPRP | -0.143
RRIRSRPPRLPRPRPRPLIFPRP | -0.403
RRIRYRPPRLPRPRPRPWHHPRP | -0.271
RRIRQRPPRLPRPRPRPTYEPRP | -0.0761
RRIRCRPPRLPRPRPRPSIMPRP | -0.684
RRIRWRPPRLPRPRPRPWSTPRP | 0.374
RRIRLRPPRLPRPRPRPYASPRP | 0.000498
RRIRQRPPRLPRPRPRPLPKPRP | -0.226
RRIRVRPPRLPRPRPRPITCPRP | -0.324
RRIRLRPPRLPRPRPRPEFEPRP | 0.0191
RRIRPRPPRLPRPRPRPFMPPRP | -0.793
RRIRKRPPRLPRPRPRPKNKPRP | 0.287
RRIRSRPPRLPRPRPRPGFAPRP | 0.502
RRIRNRPPRLPRPRPRPIFVPRP | -0.0459
RRIRGRPPRLPRPRPRPAQSPRP | 0.723
RRIRRRPPRLPRPRPRPLFNPRP | -0.162
RRIRNRPPRLPRPRPRPQAVPRP | -0.0343
RRIRYRPPRLPRPRPRPICQPRP | -0.087

Sequence | shrunken log2 fold change
RRIRKRPPRLPRPRPRPSTPPRP | 0.0478
RRIRGRPPRLPRPRPRPFHPPRP | -0.124
RRIRHRPPRLPRPRPRPHKEPRP | -0.00832
RRIRNRPPRLPRPRPRPSLHPRP | -0.621
RRIRERPPRLPRPRPRPPKIPRP | -0.28
RRIRKRPPRLPRPRPRPLPKPRP | 0.54
RRIRLRPPRLPRPRPRPWANPRP | 0.0875
RRIRKRPPRLPRPRPRPGHKPRP | 0.193
RRIRERPPRLPRPRPRPFIKPRP | -0.16
RRIRDRPPRLPRPRPRPRWQPRP | 0.0899
RRIRYRPPRLPRPRPRPRIFPRP | -0.603
RRIRLRPPRLPRPRPRPMFKPRP | -0.245
RRIRLRPPRLPRPRPRPANHPRP | -0.333
RRIRFRPPRLPRPRPRPVQLPRP | -0.189
RRIRVRPPRLPRPRPRPSQKPRP | -0.0127
RRIRNRPPRLPRPRPRPPKIPRP | 0.0999
RRIRHRPPRLPRPRPRPCAMPRP | -0.257
RRIRCRPPRLPRPRPRPQHLPRP | -0.0397
RRIRARPPRLPRPRPRPAQCPRP | 0.469
RRIRSRPPRLPRPRPRPFYCPRP | -0.14
RRIRWRPPRLPRPRPRPHYNPRP | -0.772
RRIRVRPPRLPRPRPRPILCPRP | 0.0143
RRIRFRPPRLPRPRPRPMPIPRP | 0.0193
RRIRDRPPRLPRPRPRPWTGPRP | -0.118
RRIRPRPPRLPRPRPRPKSQPRP | -0.193

Sequence | shrunken log2 fold change
RRIRRRPPRLPRPRPRPCSRPRP | 0.00396
RRIRYRPPRLPRPRPRPHYCPRP | -0.403
RRIRWRPPRLPRPRPRPEYNPRP | 0.195
RRIRDRPPRLPRPRPRPRCCPRP | 0.18
RRIRNRPPRLPRPRPRPQEGPRP | 0.0303
RRIRERPPRLPRPRPRPPNDPRP | -0.462
RRIRFRPPRLPRPRPRPQTFPRP | -0.127
RRIRQRPPRLPRPRPRPQWTPRP | -0.126
RRIRHRPPRLPRPRPRPCGNPRP | -0.196
RRIRYRPPRLPRPRPRPFMCPRP | -0.233
RRIRERPPRLPRPRPRPWPKPRP | -0.102
RRIRVRPPRLPRPRPRPMYYPRP | -0.706
RRIRIRPPRLPRPRPRPTHCPRP | -0.00414
RRIRLRPPRLPRPRPRPVLCPRP | 0.168
RRIRPRPPRLPRPRPRPMKMPRP | -0.148
RRIRIRPPRLPRPRPRPSGNPRP | 0.0322
RRIRIRPPRLPRPRPRPTPDPRP | -0.0173
RRIRCRPPRLPRPRPRPMQNPRP | 0.311
RRIRQRPPRLPRPRPRPIPWPRP | 0.0351
RRIRTRPPRLPRPRPRPVNIPRP | -0.136
RRIRTRPPRLPRPRPRPHLIPRP | 2.85
RRIRRRPPRLPRPRPRPQARPRP | 0.246
RRIRIRPPRLPRPRPRPKVPPRP | 0.167
RRIRGRPPRLPRPRPRPGSRPRP | 0.565
RRIRERPPRLPRPRPRPHTNPRP | -0.466

Sequence | shrunken log2 fold change
RRIRLRPPRLPRPRPRPFRFPRP | -0.212
RRIRARPPRLPRPRPRPMTNPRP | 0.178
RRIRDRPPRLPRPRPRPCGAPRP | 0.838
RRIRGRPPRLPRPRPRPIRVPRP | -0.189
RRIRNRPPRLPRPRPRPEGVPRP | 0.205
RRIRCRPPRLPRPRPRPIACPRP | -0.285
RRIRVRPPRLPRPRPRPKECPRP | -0.0265
RRIRTRPPRLPRPRPRPGNAPRP | -0.0554
RRIRSRPPRLPRPRPRPTGQPRP | 0.31
RRIRVRPPRLPRPRPRPAIHPRP | -0.23
RRIRTRPPRLPRPRPRPFCNPRP | 0.0687
RRIRYRPPRLPRPRPRPIFLPRP | -0.246
RRIRERPPRLPRPRPRPDDRPRP | -0.135
RRIRERPPRLPRPRPRPCSWPRP | -0.0335
RRIRPRPPRLPRPRPRPRALPRP | 0.388
RRIRARPPRLPRPRPRPNHFPRP | -0.0665
RRIRYRPPRLPRPRPRPVEFPRP | -1.06
RRIRLRPPRLPRPRPRPYYPPRP | -0.117
RRIRVRPPRLPRPRPRPWVEPRP | -0.0944
RRIRCRPPRLPRPRPRPSPNPRP | -0.102
RRIRLRPPRLPRPRPRPGCPPRP | 0.0643
RRIRLRPPRLPRPRPRPWWDPRP | -0.305
RRIRARPPRLPRPRPRPGLPPRP | 0.709
RRIRQRPPRLPRPRPRPHFVPRP | -0.208
RRIRCRPPRLPRPRPRPQQVPRP | -0.29

Sequence | shrunken log2 fold change
RRIRFRPPRLPRPRPRPKITPRP | -0.448
RRIRWRPPRLPRPRPRPYVCPRP | -0.00902
RRIRIRPPRLPRPRPRPILGPRP | -0.0266
RRIRMRPPRLPRPRPRPQQFPRP | 0.359
RRIRLRPPRLPRPRPRPNHVPRP | -0.449
RRIRYRPPRLPRPRPRPPSGPRP | 0.0974
RRIRCRPPRLPRPRPRPCTMPRP | -0.725
RRIRQRPPRLPRPRPRPLCGPRP | 0.0478
RRIRKRPPRLPRPRPRPVPVPRP | 0.253
RRIRQRPPRLPRPRPRPTCRPRP | 0.133
RRIRDRPPRLPRPRPRPNEHPRP | -0.0707
RRIRIRPPRLPRPRPRPSRMPRP | -0.271
RRIRTRPPRLPRPRPRPRCAPRP | 0.0538
RRIRRRPPRLPRPRPRPMHPPRP | 0.552
RRIRMRPPRLPRPRPRPCMSPRP | -0.00161
RRIRHRPPRLPRPRPRPENMPRP | -0.042
RRIRLRPPRLPRPRPRPDSCPRP | -0.851
RRIRWRPPRLPRPRPRPVDSPRP | 0.183
RRIRERPPRLPRPRPRPSNEPRP | -0.17
RRIRLRPPRLPRPRPRPSAYPRP | 0.0888
RRIRQRPPRLPRPRPRPCMVPRP | -0.0725
RRIRKRPPRLPRPRPRPEDTPRP | 0.103
RRIRIRPPRLPRPRPRPSVCPRP | -0.294
RRIRIRPPRLPRPRPRPQHSPRP | -0.463
RRIRARPPRLPRPRPRPMDYPRP | -0.407

— the supplement of paper PMC9112550, “Optimization of the antimicrobial peptide Bac7 by deep mutational scanning” (BMC Biology, 2022)
